assay: soluble on expression in E. coli; label from the status in PepcDB or PDB records

| Sequence | soluble on expression in E. coli |
| --- | --- |
| GPGSMNRLFGRKKDTQKPTLEDASVKIGARCDAVDARVSKIDAELAKLKECIQRTTGATQQRHKQRAIQLLQQKRLYQNQQDVLMQQQFNIDQLQFTTESVKDAKLQVDAMKDATKTLKREFKKMSVADVEKLQDELLNLYEDAQYVQEAMGRSYDVPDSIDEDEMLGELEALAMQSGNEADSSYLSDALAMPSGRLPDLMSNTQQQQETETPDPYKLETQLGL | not soluble |
| MGSDKIHHHHHHMALYKTESGEIHLVRDICPHRGVPLTKGWVDGEEIVCPYHGLRYNTEGKCTQIPAQPELTKISDRFSLTKFPVVQRYGLIWTSIHGRDVTQANIPVLDTWDDAEHQAILPPFVDIGGSSGRQLEGFIDVAHFAWVHHNAFANRDNPIVPKYHTERTNYGLKTVYISNVSNYPHELKHLEPEGFLWKRTFEVYPPFSAVLTVDFPEGGILKILNACCPISSNKTRLFVPLTRNFDQTGDLEKVYAFNAQIFAEDQDMVESQKPEELPLDLMMEAHFEADRSSTTYRRILAEWGLSKRYTV | not soluble |
| MHHHHHHSSGVDLGTENLYFQSNAMADCYLTEKKKNFIPIQPMMPDELPDWLDTQDARTQQWVKASGFVGLAGTICSIPESTGALQRVLLGVSDYEYSWDFGGLSKVLPPGAFQLNRDDFEDDEYYERALLAFGLGSYQFNAYRKRSPYLAKLFLPQAHRKRVTDWLTTIYLIRDLINTPAEDMGPSELAQAVKHVAKEFEAKVKIIESKDLETEFPAIYAVGRAGSRPPLLIDLKWGDIKAPKVTLVGKGVCFDSGGLDIKTPGGMLLMKKDMGGAAHALGLARMIMLQQLPVRLRLLIPAVENAIGSRSYRPGDVVQTRARKTIEITNTDAEGRVVLADALAEAVKEDPDLIIDFSTLTGAARIALGPNLPALFANQDSLAQALIDASLKTDDPLWRLPLFQPYRNYLKSEVADLTNSSQNRMAGAITAALFLQHFVSDQIPWAHFDIFAWNLEDLPGRPIGGEAMALRAVFHYLEQQYR | soluble |
| MIIKPRIRGFICTTTHPVGCEANVKEQIAYTKAQGPIKNAPKRVLVVGASSGYGLSSRIAAAFGGGASTIGVFFEKEGTEKKPGTAGFYNAAAFEKLAREEGLYAKSLNGDAFSNEAKQKTIDLIKEDLGQVDMVVYSLASPVRKMPETGELIRSALKPIGETYTSTAVDTNKDVIIEASVEPATEEEIKDTVTVMGGEDWELWINALSDAGVLAEGCKTVAYSYIGTELTWPIYWDGALGKAKMDLDRAAKALNEKLGATGGSANVAVLKSVVTQASSAIPVMPLYIAMVFKKMREEGVHEGCMEQIYRMFSQRLYKEDGSAAEVDDMNRLRLDDWELREDIQQHCRELWPQITTENLKELTDYVEYKEEFLKLFGFGVEGVDYEADV | not soluble |
| MNIAKLIDHTILKANTTKEDVMKVIEEAKEYKFASVCINPTWVKLAAEELAGHDVDVCTVIGFPLGASTTETKAFETKDAIAKGATEVDMVINVGALKDGDNELVEKDIYEVVQAAKGKALVKVIIETCLLTDEEKVRACELSVKAGADFVKTSTGFSTGGATAEDIALMRKTVGPNVGVKASGGVRTREDAEKMVAAGASRVGASASVAIVLNDAKGATDNY | not soluble |
| MRNVLKAETLERKFPLLSVENGCIVSKDADLTVAFEVELPELYTVTAEEYEAMHSTWIKAARVLPEHSIVCKQDWFTKESYRPQNGGEEQSFLSRSYERHFNERPYLNHRCFLYLTKTTRERNRRQSDFSTLCRGFLLPREITDKDMAARFLEAVEQFEHIVNDSGHIRLRRLETEEITGTRERPGLVEKYLSLSMEDETAVLQDICLKPGRMRIGDKRLCLHTLSDTEDLPGKLSTDMRYERMSTDRSDCRLSFAAPVGLLLSCNHIYSQYVFIDNAQKILQMMEKNSRNMLSLSQYSRSNAVNQEWTEMYLDEAHTKGVLPVRCHCNVIAWAEDAEEFRRIRNDTGSQLAMMECTPRYNTVDTPVLYWAGIPGNAGDFPAEESFYTFLEQAVCLFAGETNYRSSPSPFGIRMADRQNGIPVHVDISDLPMKRGIITNRNKFILGPSGSGKSFFTNHLVRNYYEQGAHILLVDTGNSYQGLCRMIHERTRGGDGIYITYEEDNPISFNPFYTDSGQFDVEKRESIKTLILTLWKREDEAPKRSEEVALSGAVNAYIRKITENREARPDFNGFYEFVDGDYRRMIAEKKVREKDFDIDGFLNVLEPFYKGGDYDFLLNSDRELDLTNRRFIVFELDNISGNKVLLPVVTLIIMETFIAKMRRLKGIRKVILIEECWKALMSANMSGYIQYLFKTVRKYFGEAVVVTQEVDDIISSPIVKEAIINNSDCKILLDQRKYMNKFEHIQRLLGLTEKEKSQILSINQANHPGRFYREVWIGLGGTRSAVYATEVSAEEYFTFTTEESEKLEVQRLAEELDGNLELAIRRMAERKREEQRQVSIPKREQ | not soluble |
| MGSDKIHHHHHHMLRLITDFDGPIIDVSERYYRVYQFCLEKTRRPDQVVQELPKAEFWQLKRSRVPEKQIAFNSGLDEAQAQEFAQLRRQTVHTEAYFNYDTLAPGAVDALLKIQEAGIDLAVMTMRRVRELDYAFKKYDLGRFFPENRCYCLSNDYVKTRDIEDKPLLMARALKELPPAADTWMVGDTEADITAAKNYDIKVMAVESGIRDRTQLELYHPDLIVKDFSTAVDLVLKPKHLV | not soluble |
| MGSDKIHHHHHHMKDKVVVSQLGARMHYAVPRIFASAGRLAHFYTDICATKGWPRIVNSFPATLYPAPVKRLAGRLPKGVPTALTTVFSNFGLRSVLRHMRAKDVVEETSHAIWAGSIFSEMVARRGFHGAAGLYAFSGDALEQMQAAKQQGLWTAVEQMIAPRDVVEMLLNQEMKRFPAWAGPVQENPHARLFAEREKAEWRLADVIVCPSEFVRKNVVACGGPEDRCVVVPYGVNAAVANNRPARMPGPIRVLTVGEVGLRKGSPYVVEASRLMEGSARFRMAGRVRLADDVKQQISQWVELRGIVPRSQIAEEFRWADVFLLPSLCEGSATAVYEALAAGLPVITTENTGSVVRDGIEGFIVPVCDPEAIATAVRALAGNPELMRSMSANALLRAAEHTVESYGERLLAVLSGPHLAGSVGLCQTEEARYLGNNTI | not soluble |
| SSGLVPRGPLGSHMDAVDATMEKLRAQCLSRGASGIQGLARFFRQLDRDGSRSLDADEFRQGLAKLGLVLDQAEAEGVCRKWDRNGSGTLDLEEFLRALRPPMSQAREAVIAAAFAKLDRSGDGVVTVDDLRGVYSGRAHPKVRSGEWTEDEVLRRFLDNFDSSEKDGQVTLAEFQDYYSGVSASMNTDEEFVAMMTSAWQLKL | soluble |
| MSTTRKLILANIHGVDKPGVTAELTAILAKHNAFILDIGQADIHNNLSLGILFQTDESHSGSILKDLLFKSYELDVTVRFEPITEEAYSEWVGMQGRNRYIITVVARKITAEMIAGIARSSAEQGLNIDDIKRLTGRIPLNETDRSPKASVEFSMRGTPTDIEKLQRNFMEMASQLNMDISFQRESMFR | not soluble |
| MGSDKIHHHHHHMEIIKKKFPKIKRDYLDTLQINIGYKCNQACSHCHVDSSPSRTEMMSDDIIKLIPKVIKANEIKLLDITGGAPELHPKFKQLVIEVRSLNVEVMDRCNLTILKEPGYESLAGFLASNKVQITASLPCYLEGNVDKQRGKGVFEKSILALKQLNNLGYGIKDKGLLLNLVYNPSTPQLPPSQKELEDIYRRELKERYGIFFSNLYVLANMPINRYENYLKTIGKLEEYNKLLKDNHNPGNINSVMCRSTLSVDWKGFLYDCDFNQQLGMKRNGNVKHLNDLLIPLVSLKNNPISTGNHCFGCTAGAGSSCGGELT | not soluble |
| MRKPKITVIGGGTGIPVILKSLRLEDVEITAVVTVADDGGSSGELRSVMQLTPPGDLRNVLVALSDMPKFYEQIFQYRFAEGDGDFAGHPLGNLIIAGVAEMQGSTYNAMQSLTQFFHTTGKIYPSSEHPLTLHAVFKDGHEVVGESQIADYKGMIDHVYVTNTYNEETPTASRKVVDAILESDMIVLGPGSLFTSILPNLVIPEIKQALLETRAEVAYVCNIMTQRGETEHFTDADHVEVLKRHLGQDAIDTVLVNIEKVPESYMENNHFDEYLVQVEHDFSGLRKHARRVISSNFLKLEKGGAFHHGDFVVEELMNLVGTHLLEHHHHHH | not soluble |
| TSEEYYKRKKQIKKLMSDQYAFLDLHGFTLHEDLYFEGIYEGFFFRVCPATEYIKKGYAGKKAIEYVIIESFYRFASEATDMDREVKMSGEYNFGDVHFENHCAGFVPKDWKNPDFKANFDALITIFEREGLLPITKNDWESTFGQHSKKAKDASRKNPQR | not soluble |
| MKIACVVLTYNRLSLLKRCIDSIRNQTYQEFDIYVIDNASTDGTAHWLSLQNDLTVISIHENKGPANGFYTCLQVPYDDGYDWIWMMDDDGVADKGQLEELLNKTVKNNLYFTNALVCNIDNPEKIAFGAKKTIDTQREELIKGNINPFNGTFIHRRVIEKNGNIMREMYMYGCETEYQLRAIKNGFQVATVTSAIHYHPSPKVSICHLIPYIKYCSIIDYPIDTLFYIRNKAYINYTYLGFKRSLFMITSYSLYYLFRLKIRKVLLFWKYYREGCKGVVGNKKQ | soluble |
| PFTYSIEATRNLATTERCIQDIRNAPVRNRSTQFQLAQQNMLAYTFGEVIPGFASAGINGMDYRDVIGRPVENAVTEGTHFFRDDFRVDSNAKAKVAGDIFEIVSSAVMWNCAARWNSLMVGEGWRSQPRYSRPTLSPSPRRQVAVLNLPRSFDWVSLLVPESQEVIEEFRAGLRKDGLGLPTSTPDLAVVVLPEEFQNDEMWREEIAGLTRPNQILLSGAYQRLQGRVQPGEISLAVAFKRSLRSDRLYQPLYEANVMQLLLEGKLGAPKVEFEVHTLAPEGTNAFVTYEAASLYGLAEGRSAVHRAIRELYVPPTAADLARRFFAFLNERMELVNG | soluble |
| MRTHTGKIPDHFVPRISMTEEQRRVVFMLNSLLLDYPEEGFVDKLNAVEAQLDVLPLPVAAHVVEFLDAARVAGLRAMQEAYVETFDQRRRCSLFLTYYAVGDTRQRGTAILTFRQTLQQLGFESERDELPDHLCVVLEAAALADSSLFDAATQVLSAHRDGIEVLRAALDNLDSPYRYLIMSLCQALPEIDEETANSYMELIRSGPPAEMVGIGTPLPFPTSQPDIH | not soluble |
| AIASARVRSRSRGRGDGQEAPDVVAFVAPGESQQEEPPTDNQDIEPGQEREGTPPIEERKVEGDCQEMDLEKTRSERGDGSDVKEKTPPNPKHAKTKEAGDGQP | soluble |
| MAHHHHHHMVMNDITKSDTHERKDEVTMDKGGMFNNFFECMNEQMKRIDRYHEDMSRMMNSMRTHYFSDELSKYFPSRRSLLDYDLGDARRNDLFFGKPQFLMDRFKNVPPMDVVDKDKEIEIKIDVPGLSKDNVQINLYNRNLEVSGDFKKTEETRDDEQRYYVKERSQTSFYRSFQLPENVCEDNIKATFKDGVLKIDIPKKDVLPEKKKKIEIQ | soluble |
| MSVTKLNNGKWQARVSYKDDDGNYKSVTHLEKRKTDAVEWETKTKNALLEGADLSRSTESLKHYFLDWIRIYKTDGVSRHTHELYMGNWRHIAAYFKDRPMSAIKRPDYQKFLNEFGRSHGIATSHKLHQQVHTAIKDAVADGILKRDFAYKAHVTGRPPKPVEEKYLTLSDYKKLRKYLIKTADYDHMTMLMMLFQLETGTRFEEAAGLTWDNLDLNNGIVHIKQQWDARRQTFRPTKGNGQADGDITIGPAYCRFMRSYRSTQKDYLELHEMKNPKNLVFWSKLGKIVGNGNANEELGRICNRLKINKVTTHAMRHTHASILILNHESLPYVQHRLRHQKLETTVNTYVHLIEEENGVSDKKATELMDEGF | not soluble |
| MAVYLDFENHIKEIQNEIELALIRGDEDAKEILEKRLDKEVKSIYSNLTDFQKLQLARHPDRPYAMDYIDLILKDKYEVFGDRHYNDDKAIVCFVGKIDNVPVVVIGEEKGRGTKNKLLRNFGMPNPCGYRKALKMAKFAEKFNLPILMLVDTAGAYPGIGAEERGQSEAIAKNLQEFASLKVPTISVIIGEGGSGGALAIAVADKLAMMEYSIFSVISPEGCAAILWDDPSKTEVAIKAMKITPRDLKEAGLIDDIILEPSKGAHRDKFSAANTIKEYFLDALRTIQQDPHFLDNRYQKLMSLGSFVESMN | soluble |

Source: the DeepSol protein solubility set
